Reference: patent US20100173430A1

Tests used:
[1] = target: human IgG (Sigma) (human); experiment: SPR (BIAcore); protein G layer on gold thin film, human IgG 100 ug/ml injected
[2] = target: anti-human Kallikrein 3/PSA antibody (R&D systems); experiment: SPR (BIAcore); protein G layer on gold thin film, anti-PSA antibody 0.5 ug/ml injected

Question: Which results are given for “untagged Streptococcal protein G variant recombinant protein (B1 and B2 domains, not tagged with cysteine) (from UniProt P19909 313-497)”?
Answer: change in surface plasmon resonance signal [1]: 1000 RU; change in surface plasmon resonance signal [2]: 114 RU
